This note sets out measurements from patent publication US20120232127A1, “REGULATION OF NEUROTRANSMITTER RELEASE THROUGH ANION CHANNELS” (KOREA INSTITUTE OF SCIENCE AND TECHNOLOGY, priority 2008, published 2012).

The target of one data set is T1, mBest1 (Mus musculus, UniProt O88870).
T1 sequence (O88870 1-551): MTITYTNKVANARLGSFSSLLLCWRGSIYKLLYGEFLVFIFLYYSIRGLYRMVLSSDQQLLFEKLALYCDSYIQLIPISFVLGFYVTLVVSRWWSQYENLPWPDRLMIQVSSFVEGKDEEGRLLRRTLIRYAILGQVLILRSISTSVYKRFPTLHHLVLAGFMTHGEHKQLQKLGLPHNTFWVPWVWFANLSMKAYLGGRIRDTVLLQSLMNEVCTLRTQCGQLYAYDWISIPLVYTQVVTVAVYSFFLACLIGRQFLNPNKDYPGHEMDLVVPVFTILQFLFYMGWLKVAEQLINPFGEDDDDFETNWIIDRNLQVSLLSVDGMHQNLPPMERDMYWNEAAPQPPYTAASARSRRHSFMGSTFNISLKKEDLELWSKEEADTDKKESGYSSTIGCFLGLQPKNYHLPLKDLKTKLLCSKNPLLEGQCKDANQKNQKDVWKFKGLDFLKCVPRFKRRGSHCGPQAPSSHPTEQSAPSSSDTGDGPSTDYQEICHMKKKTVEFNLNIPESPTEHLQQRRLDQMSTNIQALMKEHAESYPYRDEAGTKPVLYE
The data set is described as follows: CAAC current in astrocytes expressing shRNA. Set-up: endogenous in cells; host or cells: cultured mouse cortical astrocytes. Format: cell-based. The procedure: For plasmid-based shRNA expression, the following complementary oligonucleotides were annealed and inserted into the HindIII/BglII sites of pSUPER-GFP vector (Oligo Engine):
The efficacy of the construct to interfere with mBest1 expression was tested against heterologously expressed mBest1 in HEK293T cells (ATCC) by measuring specific CAAC currents. For lentivirus-based shRNA expression, lentiviral vector containing mBest1 gene was constructed by inserting synthetic double-strand oligonucleotides 5′-[…] […]-3′ (SEQ ID NO: 30) into pstI-XbaI restriction enzyme sites of shLenti2.4 CMV lentiviral vector (Macrogen) and verified by sequencing. Scrambled oligonucleotides inserted shLenti construct (Macrogen) was used as control. […]
Patch pipettes which have 3-6MΩ of resistance are filled with the standard intracellular solution. […] The concentration of free [Ca^2+]i in the solution was determined (Kuruma, A. & Hartzell, H. C. Bimodal control of a Ca(^2+)-activated Cl(−) channel by difference Ca(^2+) signals. J Gen Physiol 115, 59-80 (2000), which is hereby incorporated by reference for all purposes as if fully set forth herein). […]

Data set [1] deals with astrocytic CAAC / mBest1 channel (glutamate release). Put plainly: Sniffer patch: astrocyte to GluR1 (L497Y)-expressing HEK293T cell pairs, TFLLR-induced glutamate release. As to conditions: relative to scrambled shRNA. It counts as cell-based, mouse. The procedure:
The sniffer patch technique, which is used for determining whether or not one is permeable to glutamate, was performed as described in Lee, C. J. et al. Astrocytic control of synaptic NMDA receptors. J Physiol 581, 1057-81 (2007), which is hereby incorporated by reference for all purposes as if fully set forth herein.
2. In experiments using astrocyte-HEK293T cell pairs, the sniffer patch techniques used naïve, scrambled- or mBest1-specific shRNA expressing (with GFP) astrocytes as a glutamate source; and GluR1 (L497Y) expressing HEK293T cells (with DsRED) as a detector. After obtaining gigaohm sealing, GluR1 (L497Y)-expressing cell was firstly ruptured, and then counterpart astrocytes were pressure-applied with 500 uM of TFLLR to evoke an increase in astrocytic intracellular Ca^2+ and resulting glutamate release onto the adjacent HEK293T cells.
GluR1LY-expressing detector cells were patched with the pipette solution pH 7.3 containing 110 mM CsGluconate, 30 mM CsCl, 5 mM HEPES, 4 mM NaCl, 2 mM MgCl2, 5 mM EGTA, and 1 mM CaCl2. The percentage of GluR1 (L497Y)-mediated current to the full activation level was analyzed by dividing the current amplitude of GluR1 (L497Y) current obtained through sniffer patch measurement by that of fully activated GluR1 (L497Y) current in the same cells.
The glutamate release through astrocytic CAACs was examined by using “sniffer-patch” technique and recording real-time glutamate release from cultured astrocytes (FIG. 10a). Using this technique, the present inventors observed that TFLLR-induced astrocytic glutamate release into an adjacent HEK293T cells expressing the non-desensitizing AMPA receptor subunit GluR1 (L497Y) mutant evoked an inward current sensitive to AMPA receptor antagonists, which is interpreted to reflect release of glutamate. The effects of TFLLR on current responses in transfected HEK293T cells was blocked by the treatment of niflumic acid (% block by niflumic acid=66.6±5.7%, FIGS. 10d to 10f), which is consistent with the idea that astrocytic CAAC is permeable to glutamate.

B1: mBest1 shRNA: mBest1-specific short hairpin RNA, SEQ ID NO: 3 and 4 (lentiviral: SEQ ID NO: 30), nucleotides 563-582 of mBest1 (nucleic acid)
chain 1: GATCCCCTTGCCAACTTGTCAATGAATTCAAGAGATTCATTGACAAGTTGGCAATTTTTA
chain 2: GGGAACGGTTGAACAGTTACTTAAGTTCTCTAAGTAACTGTTCAACCGTTAAAAATTCGA
As to B1, the “CAAC current in astrocyte” value with mBest1 was 49.7±8.3 pA. In addition, the “remaining component of glutamate release from astrocytes by mBest1 knock-down” value in data set [1] is reported as “about 33%”.
